B1: H2-Kb / G6 (parent)
chain 1: AQSVTQPDARVTVSEGASLQLRCKYSYFGTPYLFWYVQYPRQGLQLLLKYYPGDPVVQGVNGFEAEFSKSNSSFHLRKASVHWSDWAVYFCAVTPGGSNAKLTFGKGTKLSVKS
chain 2: NSGVVQSPRYIIKGKGERSILKCIPISGHLSVAWYQQTQGQELKFFIQHYDKMERDKGNLPSRFSVQQFDDYHSEMNMSALELEDSAVYFCASSRQGGDNNQAPLFGEGTRLSVL
chain 3: not shown
chain 4: IQKTPQIQVYSRHPPENGKPNILNCYVTQFHPPHIEIQMLKNGKKIPKVEMSDMSFSKDWSFYILAHTEFTPTETDTYACRVKHDSMAEPKTVYWDRDM
chain 5: SIINFEKL
B2: H2-Kb / B7 (parent)
chain 1: GQQVQQSPTSLVLQEGENAELQCNFSTSLNSMQWFYQRPGGSLVSVFYNPSGTKQSGRLTSTTVIKERRSSLHISSSQITDSGTYLCAMERDMGYKLTFGTGTSLLVDP
chain 2: EAAVTQSPRNKVAVTGGKVTLSCNQTNNHNNMYWYRQDTGHGLRLIHYSYGAGSTEKGDIPDGYKASRPSQENFSLILELATPSQTSVYFCASGDPGDQDTQYFGPGTRLLVL
chain 3: not shown
chain 4: B1 chain 4
chain 5: SIINFEKL

Variants of: B1
Assay: % of reporter cells activated (NFAT-GFP), raw
Details: with G6; scale: % of reporter cells activated
Also: test concentration or dose not given here.

Ratio to parent: each site, then its substitutions
chain 5 S1: V 1.09 | C 0.502 | I 0.909 | P 1.48 | H 0.218 | W 0.362 | E 0.239 | L 3.02 | Y 0.156 | G 0.235 | T 0.222 | F 0.449 | K 2.47 | M 0.284 | Q 0.42 | D 0.395 | A 0.65 | R 1.64 | N 0.239
chain 5 K7: A 1.4 | W 0.963 | L 0.259 | I 0.358 | C 0.272 | H 0.292 | V 0.235 | P 0.346 | T 0.16 | E 0.276 | R 14.4 | Y 0.235 | M 0.379 | G 6.68 | F 0.189 | D 0.202 | N 0.412 | S 0.963 | Q 0.267
chain 5 N4: Y 0.14 | L 0.284 | F 0.202 | A 0.251 | W 0.148 | P 0.198 | K 0.42 | Q 0.128 | V 0.193 | I 0.272 | C 0.177 | H 0.276 | R 0.255 | G 0.239 | S 0.193 | E 0.177 | T 0.235 | M 0.173 | D 0.267
chain 5 I3: A 0.333 | D 0.239 | Y 0.272 | H 0.288 | C 0.292 | N 0.181 | G 0.226 | Q 0.193 | T 0.284 | F 0.523 | S 0.181 | L 0.926 | P 0.206 | E 0.395 | K 0.276 | W 0.276 | V 1.18 | R 0.109 | M 0.465
chain 5 E6: G 0.506 | S 0.428 | C 0.21 | M 0.551 | L 0.193 | Q 0.292 | D 2.75 | I 0.321 | H 0.494 | A 0.724 | V 0.222 | F 0.914 | P 0.189 | T 0.362 | Y 0.778 | R 0.259 | N 0.63 | K 0.226 | W 7.22
chain 5 I2: P 0.329 | Y 0.284 | L 0.247 | C 0.239 | H 0.259 | S 0.115 | M 0.214 | Q 0.255 | R 0.16 | F 0.226 | T 0.305 | D 0.412 | K 0.551 | N 0.321 | W 0.185 | E 0.453 | G 0.288 | A 0.305 | V 0.292
chain 5 F5: I 0.263 | P 0.272 | W 0.263 | H 0.395 | V 0.116 | L 0.959 | M 1.34 | G 0.198 | S 0.362 | T 0.177 | A 0.383 | N 0.3 | E 0.424 | K 0.284 | C 0.609 | D 0.313 | Y 0.576 | R 0.247 | Q 2.04
chain 5 L8: R 0.617 | N 0.148 | G 0.457 | P 0.206 | K 0.292 | W 1.92 | T 0.354 | C 0.251 | E 0.173 | D 0.152 | F 0.218 | Q 0.165 | S 0.086 | V 0.56 | I 0.819 | Y 2.09 | H 7.85 | M 0.267 | A 0.206

Variants of: B2
Assay: % of reporter cells activated (NFAT-GFP), raw
Details: with B7; scale: % of reporter cells activated

Ratio to parent of substitutions, site by site:
chain 5 F5: L 1.46
chain 5 I2: M 1.65 | F 1.05
chain 5 N4: M 1.38
chain 5 S1: K 1.4 | Y 1.37
chain 5 I3: A 1.68 | M 1.29 | N 1.62 | L 1.4 | V 1.17
chain 5 L8: Y 0.769 | M 0.892 | D 0.615
chain 5 K7: V 1.17

Source: PMC11480844
